These results are taken from patent US20140105926A1 (GlaxoSmithKline, published 2014).

The test concerns the target T1, Vitronectin from human plasma (SIGMA-ALDRICH) (human, UniProt P04004 20-478).
T1 construct: mature; Bought protein from human plasma. 'mature' is inferred from the plasma origin
Nature of the test: ELISA: plate coated with fusion protein (10 ug/ml), human plasma vitronectin titrated from 10 ug/ml, detected with peroxidase sheep anti-human vitronectin.

T1 sequence (P04004 20-478): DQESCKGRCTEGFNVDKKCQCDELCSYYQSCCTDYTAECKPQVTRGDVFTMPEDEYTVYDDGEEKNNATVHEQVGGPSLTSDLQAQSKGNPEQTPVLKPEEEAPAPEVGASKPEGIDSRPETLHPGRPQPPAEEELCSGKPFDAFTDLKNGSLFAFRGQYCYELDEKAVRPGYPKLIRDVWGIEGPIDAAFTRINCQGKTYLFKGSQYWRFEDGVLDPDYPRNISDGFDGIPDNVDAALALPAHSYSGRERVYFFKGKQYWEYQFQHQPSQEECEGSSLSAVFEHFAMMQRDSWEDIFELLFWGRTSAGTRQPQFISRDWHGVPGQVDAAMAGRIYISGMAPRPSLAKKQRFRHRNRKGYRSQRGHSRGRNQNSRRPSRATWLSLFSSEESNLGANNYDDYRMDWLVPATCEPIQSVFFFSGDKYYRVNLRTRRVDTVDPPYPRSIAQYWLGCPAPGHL

B1: purified LVL317 PE-PilA fusion protein (other)
chain: QIQKAEQNDVKLAPPTDVRSGYIRLVKNVNYYIDSESIWVDNQEPQIVHFDAVVNLDKGLYVYPEPKRYARSVRQYKILNCANYHLTQVRTDFYDEFWGQGLRAAPKKQKKHTLSLTPDTTLYNAAQIICANYGEAFSVDKKGGTKKAAVSELLQASAPYKADVELCVYSTNETTNCTGGKNGIAADITTAKGYVKSVTTSNGAITVKGDGTLANMEYILQATGNAATGVTWTTTCKGTDASLFPANFCGSVTQ
notes: also called PE-PilA fusion non His-tagged protein
Regarding B1, the binding result is recorded as “binds”.
